{
  "source": "patent US8394607B2",
  "about": "“Anti-CD22 antibodies and immunoconjugates and methods of use” (Genentech, Inc., priority 2006, dated 2013)",
  "molecules": {"B1": {"name": "Mu 10F4.4.1: murine anti-human CD22 monoclonal antibody, hybridoma ATCC PTA-7621 (antibody, V domains shown)", "VH": "QVQLQQSGPELVKPGASVKISCKASGYEFSRSWMNWVKQRPGQGREWIGRIYPGDGDTNYSGKFKGKATLTADKSSSTAYMQLSSLTSVDSAVYFCARDGSSWDWYFDVWGAGTTVTVSS", "VL": "DILMTQTPLSLPVSLGDQASISCRSSQSIVHSNGNTFLEWYLQKPGQSPKLLIYKVSNRFSGVPDRFSGSGSGTDFTLKISRVEAEDLGVYYCFQGSQFPYTFGGGTKVEIK"}},
  "key": {"[1]": {"molecular_target": "T1, human CD22-beta-ECD-His tagged soluble antigen (Homo sapiens, UniProt P20273, A486R/Y639H)", "T1 sequence (P20273 22-681 A486R/Y639H)": "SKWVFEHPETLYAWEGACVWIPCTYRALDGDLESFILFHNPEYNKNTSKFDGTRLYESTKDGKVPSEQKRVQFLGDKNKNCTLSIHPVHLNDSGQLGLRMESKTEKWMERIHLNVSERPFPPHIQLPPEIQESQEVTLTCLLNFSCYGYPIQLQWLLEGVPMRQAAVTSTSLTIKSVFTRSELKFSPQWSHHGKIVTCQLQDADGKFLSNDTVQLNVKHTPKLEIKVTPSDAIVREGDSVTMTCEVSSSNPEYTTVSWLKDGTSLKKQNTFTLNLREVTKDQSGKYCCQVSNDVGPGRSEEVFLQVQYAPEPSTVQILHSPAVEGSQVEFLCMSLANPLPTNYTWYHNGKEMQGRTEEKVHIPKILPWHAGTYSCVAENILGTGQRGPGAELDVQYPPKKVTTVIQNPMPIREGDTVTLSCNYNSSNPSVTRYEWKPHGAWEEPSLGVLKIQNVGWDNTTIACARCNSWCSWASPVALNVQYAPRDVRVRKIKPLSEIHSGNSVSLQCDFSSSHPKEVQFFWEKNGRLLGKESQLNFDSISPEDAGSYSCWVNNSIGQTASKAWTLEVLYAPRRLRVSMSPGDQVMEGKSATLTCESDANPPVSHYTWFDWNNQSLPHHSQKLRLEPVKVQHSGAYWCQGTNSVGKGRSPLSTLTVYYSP", "assay": "BIACORE surface plasmon resonance binding to soluble CD22 ECD", "conditions": "BIACORE 3000, 25° C., antibody coupled to chip, soluble CD22 ECD injected; one-to-one Langmuir model", "protocol": "The binding affinity of murine and humanized 10F4 antibody for soluble CD22 extracellular domain (ECD) was determined by surface plasmon resonance measurement using a BIACORE® 3000 system (Biacore, Inc., Piscataway, N.J.). Briefly, carboxymethylated dextran biosensor chips (CMS, Biacore Inc.) were activated with N-ethyl-N′-(3-dimethylaminopropyl)-carbodiimide hydrochloride (EDC) and N-hydroxysuccinimide (NHS) according to the supplier's instructions. These activated chips were coated with anti-CD22 IgG1 antibody 10F4 (murine or humanized) by dilution to 5 μg/ml with 10 mM sodium acetate, pH 4.8, before injection at a flow rate of 5 μl/minute to achieve approximately 500 response units (RU) of coupled antibody. Next, 1M ethanolamine was injected to block unreacted groups. […] Association rates (kon) and dissociation rates (koff) were calculated using a simple one-to-one Langmuir binding model (BIAevaluation Software version 3.2). The equilibrium dissociation constant (Kd) was calculated as the ratio koff/kon. Anti-CD22 antibody, RFB4, was used as a control (Chemicon International, Inc., Temecula, Calif., catalog no. CBL147)."}, "human CD22": {"test_system": "human CD22", "sequence (P20273 20-240 limits assumed)": "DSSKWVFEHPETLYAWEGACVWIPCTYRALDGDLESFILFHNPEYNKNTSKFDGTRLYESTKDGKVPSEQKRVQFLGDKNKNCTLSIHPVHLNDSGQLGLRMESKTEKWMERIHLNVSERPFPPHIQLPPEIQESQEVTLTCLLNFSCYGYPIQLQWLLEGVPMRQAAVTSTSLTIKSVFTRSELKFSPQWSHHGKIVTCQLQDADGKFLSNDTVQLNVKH", "assay": "ELISA plate assays and FACS cell-based assays for selection of hybridoma antibodies", "format": "binding", "protocol": "Murine monoclonal antibodies capable of specifically binding human CD22 was prepared. BALB/c female mice, age six weeks, were immunized in their foot pads with purified human CD22 his-8 tagged extracellular domain lacking domains 3 and 4 (SEQ ID NO:30 (ECD) plus the sequence […] at the C-terminus) or CD22 his-8 tagged extracellular domain comprising domains 1-7 (SEQ ID NO:28 (ECD) plus the above His sequence tag) in Ribi's adjuvant. Subsequent injections were performed in the same manner at one and three weeks after the initial immunizations. […]\nELISA-based assays: Anti-CD22 antibody screening by ELISA is performed as follows, with all incubations done at room temperature. […] Data is obtained by reading the plates in an automated ELISA plate reader at an absorbance of 490 nm.\nCHO cells expressing human CD22 on their surface were incubated with anti-CD22 hybridoma supernatant in 100 μl FACS buffer (0.1% BSA, 10 mM sodium azide in PBS, pH 7.4) for 30 minutes at 4° C. followed by one wash with FACS buffer. The amount of anti-CD22 binding was determined by incubating an aliquot of the antibody/cell mixture with a polyclonal FITC conjugated goat or rabbit anti-mouse IgG (Accurate Chem. Co., Westbury, N.Y.) (for murine test antibodies) or goat or rabbit anti-human IgG (for humanized antibodies) for 30 minutes at 4° C. followed by three washes with FACS buffer."}, "[2]": {"molecular_target": "T2, human CD22 (CD22beta) lacking domain 1, domain 2, or domains 3 and 4 (Homo sapiens, UniProt P20273)", "T2 construct": "expressed in transfected cells", "T2 sequence (P20273 22-670 isoform P20273-2)": "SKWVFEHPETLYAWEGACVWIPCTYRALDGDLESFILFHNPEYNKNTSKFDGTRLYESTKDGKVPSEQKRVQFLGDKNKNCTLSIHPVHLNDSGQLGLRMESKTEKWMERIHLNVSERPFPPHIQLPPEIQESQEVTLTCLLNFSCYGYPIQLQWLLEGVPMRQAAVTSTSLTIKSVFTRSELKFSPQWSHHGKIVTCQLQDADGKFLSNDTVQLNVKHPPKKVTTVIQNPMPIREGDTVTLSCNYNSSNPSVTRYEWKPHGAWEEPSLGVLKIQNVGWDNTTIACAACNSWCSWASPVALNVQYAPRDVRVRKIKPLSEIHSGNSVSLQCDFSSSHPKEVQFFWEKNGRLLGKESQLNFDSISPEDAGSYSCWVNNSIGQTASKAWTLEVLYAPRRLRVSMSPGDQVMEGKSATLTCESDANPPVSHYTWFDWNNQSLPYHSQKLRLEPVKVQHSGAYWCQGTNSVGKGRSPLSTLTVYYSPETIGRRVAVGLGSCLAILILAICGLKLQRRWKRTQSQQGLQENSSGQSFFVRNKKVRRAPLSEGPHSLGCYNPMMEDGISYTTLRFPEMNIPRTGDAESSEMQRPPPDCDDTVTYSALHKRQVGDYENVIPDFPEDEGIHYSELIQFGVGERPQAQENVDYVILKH", "assay": "Epitope mapping by flow cytometry on CHO cells expressing CD22 domain deletion variants", "format": "binding", "conditions": "flow cytometry, CHO cells", "protocol": "(§1) The epitopes of CD22 to which 10F4.4.1 and 5E8.1.8 antibodies bound were determined according to the following procedures. CD22 sequences lacking various of the seven immunoglobulin-like domains of the major CD22 isoform (CD22beta) were cloned and transformed into cells for stable expression. For example, CD22 variants lacking domain 1 (Δ1), domain 2 (Δ2), or domains 3 and 4 (Δ3,4) were cloned, transformed into CHO cells, and expressed on the cells. Control cells expressed CD22beta. Deletions were performed using Stratagene QuikChange XL™ reagent kit. Deletion of domain 1 was performed by deletion of amino acids 22-138; deletion of domain 2 was performed by deletion of amino acids 139-242; and deleted domains 3 and 4 were available as the minor isoform CD22alpha (deletion of amino acids 241-417). All amino acid numbers refer to the numbering of full length precursor CD22beta by Wilson, G. L. et al. (see FIG. 1 in Wilson, G. L. et al., J. Exp. Med. 173:137-146 (1991)). FIG. 14 is a diagram of the deleted domains. Binding was determined by flow cytometry using an isotype control. Binding of 10F4.4.1 was detected using goat anti-mouse IgG Alexa 488. Binding of 5E8.1.8 was detected using biotinylated goat anti-mouse IgG plus streptavidin PE. […] Neither bound CD22 lacking domain 1 or domain 2, and both bound CD22 comprising domains 1 and 2, but lacking domains 3 and 4."}, "[3]": {"test_system": "human CD22 (CD22beta) lacking domain 1, domain 2, or domains 3 and 4", "assay": "Epitope mapping by flow cytometry on CHO cells expressing CD22 domain deletion variants", "format": "binding", "protocol": "as §1"}},
  "data": [
    {"molecule": "B1", "values": [
      {"measurement": "koff/10^−4", "setting": "[1]", "result": 2.8},
      {"measurement": "kon/10^5", "setting": "[1]", "result": 0.19},
      {"measurement": "specific binding to human CD22", "setting": "human CD22", "result": "bind specifically to human CD22"},
      {"measurement": "binding to CD22 comprising domains 1 and 2 but lacking domains 3 and 4", "setting": "[2]", "result": "both bound"},
      {"measurement": "binding to CD22 lacking domain 1 or domain 2", "setting": "[3]; flow cytometry, CHO cells", "result": "Neither bound"},
      {"measurement": "epitope (CD22 domains bound)", "setting": "[3]; within amino acid 22 to amino acid 240 of SEQ ID NO:27", "result": "domains 1 and 2 of human CD22"}
    ]}
  ]
}
